In publication PMC9882985 (Science Advances, 2023):
Blank lines part the entries; values can stand above or below the molecule they belong to.

Assays:
[1] = molecular target: eYFP-CP2c WT with SUMO3 conjugation; experiment: FRET; settings: in vitro; eYFP-CP2c conjugated with SUMO3 (lane 12); n = 3; parent: est. 13; read off a plot
[2] = molecular target: eYFP-CP2c WT with SUMO2 conjugation; experiment: FRET; settings: in vitro, n = 3, parent: est. 13, read off a plot
[3] = molecular target: PSME3 WT-dTomato with SUMO3 conjugation, P61289;P55854; experiment: FRET; settings: in vitro; PSME3-dTomato conjugated with SUMO3 (lane 8); n = 3; parent: est. 24; read off a plot
[4] = molecular target: PSME3 WT-dTomato with SUMO1 conjugation, P61289;P63165; experiment: FRET; settings: in vitro; PSME3-dTomato conjugated with SUMO1 (lane 6); n = 3; parent: est. 55; read off a plot
[5] = molecular target: PSME3 WT-dTomato with SUMO2 conjugation, P61289;P61956; experiment: FRET; settings: in vitro; PSME3-dTomato conjugated with SUMO2 (lane 7); n = 3; parent: est. 21; read off a plot
[6] = molecular target: eYFP-CP2c WT with SUMO conjugation (SUMO1), Q9ERA0;P63165; experiment: FRET; settings: in vitro; eYFP-CP2c conjugated with SUMO1 (lane 6); n = 3; parent: est. 75; read off a plot
[7] = molecular target: the molecule itself; experiment: cross-linking + co-IP; DSP XL-IP: live transfected cells crosslinked with 2 mM DSP in PBS 3 hours on ice, lysed, immunoprecipitated, Western blot with or without DTT; cells arrested at G2-M with MG132 (Fig. 4G)

response [1]: 7% | response ([2]; eYFP-CP2c conjugated with SUMO2 (lane 11)): 9%
Molecule: PSME3 WT-dTomato (non-SUMOylated) (from UniProt P61289) K6R; K12R; K14R; K110R; K123R; K243R

response [3]: 12% | response [4]: 7% | response [5]: 9%
Molecule: eYFP-CP2c WT (non-SUMOylated) (from UniProt Q9ERA0) SIM m158: VGVID→KGKID

response [6]: 11% | response ([2]; eYFP-CP2c conjugated with SUMO2 (lane 7)): 16%
Molecule: PSME3 WT-dTomato (non-SUMOylated) (from UniProt P61289) SIM m70 (ILLTN→IRRTN) + SIM m115 (LVDII→RKDII)

B1: Flag-tagged CP2c WT (natural protein, mouse, UniProt Q9ERA0 1-502, looked up)
chain: MAWALKLPLADEVIESGLVQDFDASLSGIGQELGAGAYSMSDVLALPIFKQEESSLPPDNENEILPFQYVLCAATSPAVKLHDETLTYLNQGQSYEIRMLDNRKLGELPELNGKLVKSIFRVVFHDRRLQYTEHQQLEGWRWNRPGDRILDIDIPMSVGVIDPRANPTQLNTVEFLWDPSKRTSVFIQVHCISTEFTMRKHGGEKGVPFRVQIDTFKENGNGEYTEHLHSASCQIKVFKPKGADRKQKIDREKMEKRTPHEKEKYQPSYETTILTECSPWPEITYVNNSPSPGFNSSHSSFSLGEGNGSPNHQPEPPPPVTDNLLPTTTPQEAQQWLHRNRFSTFTRLFTNFSGADLLKLTRDDVIQICGPADGIRLFNALKGRMVRPRLTIYVCQESLQLREQQPQPQPQPQKQEDGDSNGTFFVYHAIYLEELTAVELTEKIAQLFSISPHQISQIYKQGPTGIHVVISDEMVQNFQEEACFILDTMEAETSDSYHVILK
notes: CP2c (Tfcp2), mouse cDNA, in pcDNA3-Flag; In cells part of it is SUMO1-conjugated at K50; also called Flag-CP2c; source: 293T, transfected, in lysate
stoichiometry N [7]: 2
